Source: PMC5672839, “A novel peptide stapling strategy enables the retention of ring-closing amino acid side chains for the Wnt/β-catenin signalling pathway” (Chemical Science, 2017)
Starred links: 1 amine or outer side, 2 acyl side, 3 side chain; linkers in the order of their positions; H or OH if unused. Positions of bridges follow the written chain, without caps; N, C: chain ends. Non-standard residues stand in square brackets, D forms with d. Residues, ends and D or L forms follow the SMILES beside them. *: point of attachment. FITC = O=C1OC2(c3ccc(O)cc3Oc3cc(O)ccc32)c2ccc(NC(=S)*)cc21; X2 = CC(C)C[C@](CCCC=[*:3])(N[*:1])C(=O)[*:2]; X6 = NCCCC[C@](CCCC=[*:3])(N[*:1])C(=O)[*:2]; X1 = CSCC[C@](CCCC=[*:3])(N[*:1])C(=O)[*:2]; X3 = O=C([C@@](CO)(CCCC=[*:3])N[*:1])[*:2]; X5 = C=CCCC[C@@](CC(C)C)(N[*:1])C(=O)[*:2]; X4 = C=CCCC[C@@](CCSC)(N[*:1])C(=O)[*:2]; R5 = C=CCCC[C@@](C)(N)C(=O)O; S5 = C=CCCC[C@](C)(N)C(=O)O; βAla = NCCC(=O)O

What was measured:
circular dichroism = details: 10 mM phosphate buffer (captions say PBS); pH 7.4; 25 °C; 50 uM
HEK 293T/17 cells = assay: Cell permeability of FITC-labelled peptides by confocal microscopy; type: cell-based; details: FITC–β-Ala–peptide 40 μM (supplement: 10 µM), 16 h, washed with PBS twice, fixed, confocal fluorescence microscopy
Excerpt: (§1) Con = non-specific control. […] Scale bar: 50 μm.
We then assessed the cell permeability of the peptides by conjugating fluorescein isothiocyanate (FITC) to Axin (469–482), WNT-3a and WNT-3c (Fig. 3d). […] To explore the detailed binding mode of WNT-3a against β-catenin, we conducted a Z-dock of the WNT-3a–β-catenin complex to predict structural models of the protein–protein complexes.[27] […] Owing to an introduction of the stapling group, Met-481 is closer to the Trp-338 of β-catenin, and thus forms a stronger interaction with that residue. In addition, a stronger salt bridge between the side chain carboxyl group of Asp-474 coordinated with the amino group of β-catenin Lys-292 and a more efficient hydrogen bond between the side chain of His-476 and β-catenin Asp-299 are constructed because of a closer distance geometrically. It is conceivable that these changes enhanced the conformational stability of WNT-3a in its bound state, thereby contributing to the improved binding activity.
(§2) The CD spectra were obtained with
(§3) The measurement parameters
(§4) background subtraction. The curves were smoothed using standard parameters. In addition,
(§5) Figure S3. CD spectra of all peptides.
(§6) concentration of 50 μM. The percent helicity was calculated based on the [θ] 222 value.

α-chymotrypsin = α-chymotrypsin (Bos taurus, UniProt P00766); assay: Proteolytic stability towards α-chymotrypsin; details: α-chymotrypsin 5 ng μL^–1 (supplement: 0.5 ng/µL) in 50 mM PBS pH 7.4 with 2 mM CaCl2, peptide 0.1 mM final, room temperature, 1 h, analytical HPLC, duplicate independent experiments
[1] = tested on: Wnt/β-catenin dependent transcriptional activity; assay: Topflash-luciferase reporter, Wnt3a-induced expression; type: cell-based; details: Wnt3a conditioned medium, peptide 40 μM, 12 h; for Wnt3a-induced Topflash reporter expression, comparison in words: HEK293T cells transfected with Topflash-luciferase
Excerpt: We next explored the effects of these peptides on Wnt/β-catenin dependent transcriptional activity. The Topflash reporter, in which firefly luciferase is transcriptionally activated by β-catenin, was employed. […] Con = non-specific control. […] Scale bar: 50 μm.

[2] = Circular dichroism (CD) analysis, percent helicity from [θ]222; type: physicochemical; details: peptide 50 μM in phosphate buffer (10 mM, pH 7.4), 25 °C, 1 mm cuvette, calculated from [θ]222
Description: as §1, §2, §3, §4, §5, §6

in vitro = details: isolated enzyme chymotrypsin, pH 7.4

Compound | helicity (circular dichroism) [%] | also measured
C=CCCC[C@@](CCSC)(NC(=O)[C@@H](NC(=O)[C@H](CCCNC(=N)N)NC(=O)[C@](C)(CCCC=C)NC(=O)[C@@H](NC(=O)[C@H](Cc1c[nH]cn1)NC(=O)[C@H](CCC(=O)O)NC(=O)[C@H](CC(=O)O)NC(=O)[C@H](CC(C)C)NC(=O)[C@@H](NC(=O)[C@H](CO)NC(=O)[C@H](CCC(=O)O)NC(=O)[C@@H]1CCCN1C(C)=O)[C@@H](C)CC)C(C)C)C(C)C)C(=O)N[C@@H](CCCCN)C(N)=O (Ac-PESILDEHV[S5]RV[X4]K-NH2) | 49.9 | 
CC[C@H](C)[C@H](NC(=O)[C@H](CO)NC(=O)[C@H](CCC(=O)O)NC(=O)[C@@H]1CCCN1C(C)=O)C(=O)N[C@@H](CC(C)C)C(=O)N[C@@H](CC(=O)O)C(=O)N[C@@H](CCC(=O)O)C(=O)N[C@@H](Cc1c[nH]cn1)C(=O)N[C@]1(C)CCCC=CCCC[C@](C)(C(=O)N[C@@H](CCCCN)C(N)=O)NC(=O)[C@H](C(C)C)NC(=O)[C@H](CCCNC(=N)N)NC(=O)[C@H](CCC(N)=O)NC1=O (Ac-PESILDEH[R5]QRV[R5]K-NH2; staple 9-13) | 35.4 | 
CC[C@H](C)[C@H](NC(=O)[C@H](CO)NC(=O)[C@H](CCC(=O)O)NC(=O)[C@@H]1CCCN1C(C)=O)C(=O)N[C@@H](CC(C)C)C(=O)N[C@@H](CC(=O)O)C(=O)N[C@@H](CCC(=O)O)C(=O)N[C@@H](Cc1c[nH]cn1)C(=O)N[C@@]1(C)CCCC=CCCC[C@@](C)(C(=O)N[C@@H](CCCCN)C(N)=O)NC(=O)[C@H](C(C)C)NC(=O)[C@H](CCCNC(=N)N)NC(=O)[C@H](CCC(N)=O)NC1=O (Ac-PESILDEH[S5]QRV[S5]K-NH2; staple 9-13) | 64.7 | 
CC[C@H](C)[C@H](NC(=O)[C@H](CO)NC(=O)[C@H](CCC(=O)O)NC(=O)[C@@H]1CCCN1C(C)=O)C(=O)N[C@]1(C)CCCC=CCCC[C@@](C)(C(=O)N[C@H](C(=O)N[C@@H](CCC(N)=O)C(=O)N[C@@H](CCCNC(=N)N)C(=O)N[C@H](C(=O)N[C@@H](CCSC)C(=O)N[C@@H](CCCCN)C(N)=O)C(C)C)C(C)C)NC(=O)[C@H](CCC(=O)O)NC(=O)[C@H](CC(=O)O)NC1=O (Ac-PESI[R5]DE[S5]VQRVMK-NH2; staple 5-8) | 36.8 | 
C=CCCC[C@@](CC(C)C)(NC(=O)[C@@H](NC(=O)[C@H](CO)NC(=O)[C@H](CCC(=O)O)NC(=O)[C@@H]1CCCN1C(C)=O)[C@@H](C)CC)C(=O)N[C@@H](CC(=O)O)C(=O)N[C@@H](CCC(=O)O)C(=O)N[C@@H](Cc1c[nH]cn1)C(=O)N[C@](C)(CCCC=C)C(=O)N[C@@H](CCC(N)=O)C(=O)N[C@@H](CCCNC(=N)N)C(=O)N[C@H](C(=O)N[C@@H](CCSC)C(=O)N[C@@H](CCCCN)C(N)=O)C(C)C (Ac-PESI[X5]DEH[R5]QRVMK-NH2) | 21.6 | 
CC[C@H](C)[C@@H]1NC(=O)[C@](C)(NC(=O)[C@H](CCC(=O)O)NC(=O)[C@@H]2CCCN2C(C)=O)CCCC=CCCC[C@@](C)(C(=O)N[C@@H](CCC(=O)O)C(=O)N[C@@H](Cc2c[nH]cn2)C(=O)N[C@H](C(=O)N[C@@H](CCC(N)=O)C(=O)N[C@@H](CCCNC(=N)N)C(=O)N[C@H](C(=O)N[C@@H](CCSC)C(=O)N[C@@H](CCCCN)C(N)=O)C(C)C)C(C)C)NC(=O)[C@H](CC(C)C)NC1=O (Ac-PE[R5]IL[S5]EHVQRVMK-NH2; staple 3-6) | 40 | 
CC[C@H](C)[C@@H]1NC(=O)[C@](CO)(NC(=O)[C@H](CCC(=O)O)NC(=O)[C@@H]2CCCN2C(C)=O)CCCC=CCCC[C@](C)(C(=O)N[C@@H](Cc2c[nH]cn2)C(=O)N[C@H](C(=O)N[C@@H](CCC(N)=O)C(=O)N[C@@H](CCCNC(=N)N)C(=O)N[C@H](C(=O)N[C@@H](CCSC)C(=O)N[C@@H](CCCCN)C(N)=O)C(C)C)C(C)C)NC(=O)[C@H](CC(=O)O)NC(=O)[C@H](CC(C)C)NC1=O (Ac-PE[X3]ILD[R5]HVQRVMK-NH2; staple 3-7) | 24.8 | 
CC[C@H](C)[C@@H]1NC(=O)[C@](CO)(NC(=O)[C@H](CCC(=O)O)NC(=O)[C@@H]2CCCN2C(C)=O)CCCC=CCCC[C@@](C)(C(=O)N[C@@H](CCC(=O)O)C(=O)N[C@@H](Cc2c[nH]cn2)C(=O)N[C@H](C(=O)N[C@@H](CCC(N)=O)C(=O)N[C@@H](CCCNC(=N)N)C(=O)N[C@H](C(=O)N[C@@H](CCSC)C(=O)N[C@@H](CCCCN)C(N)=O)C(C)C)C(C)C)NC(=O)[C@H](CC(C)C)NC1=O (Ac-PE[X3]IL[S5]EHVQRVMK-NH2; staple 3-6) | 51.3 | 
CC[C@H](C)[C@H](NC(=O)[C@H](CO)NC(=O)[C@H](CCC(=O)O)NC(=O)[C@@H]1CCCN1C(=O)CCNC(=S)Nc1ccc2c(c1)C(=O)OC21c2ccc(O)cc2Oc2cc(O)ccc21)C(=O)N[C@@H](CC(C)C)C(=O)N[C@@H](CC(=O)O)C(=O)N[C@@H](CCC(=O)O)C(=O)N[C@@H](Cc1c[nH]cn1)C(=O)N[C@H](C(=O)N[C@@H](CCC(N)=O)C(=O)N[C@@H](CCCNC(=N)N)C(=O)N[C@H](C(=O)N[C@@H](CCSC)C(=O)N[C@@H](CCCCN)C(N)=O)C(C)C)C(C)C [FITC–β-Ala–Axin (469–482)] ({FITC-βAla}-PESILDEHVQRVMK-NH2) |  | cell permeability (HEK 293T/17 cells): also penetrated the cell membrane
CC[C@H](C)[C@H](NC(=O)[C@H](CO)NC(=O)[C@H](CCC(=O)O)NC(=O)[C@@H]1CCCN1C(C)=O)C(=O)N[C@@H](CC(C)C)C(=O)N[C@@H](CC(=O)O)C(=O)N[C@@H](CCC(=O)O)C(=O)N[C@@H](Cc1c[nH]cn1)C(=O)N[C@]1(C)CCCC=CCCC[C@](CCSC)(C(=O)N[C@@H](CCCCN)C(N)=O)NC(=O)[C@H](C(C)C)NC(=O)[C@H](CCCNC(=N)N)NC(=O)[C@H](CCC(N)=O)NC1=O [WNT-3a] (Ac-PESILDEH[R5]QRV[X1]K-NH2; staple 9-13) | 42.3 | degradation by α-chymotrypsin (α-chymotrypsin): completely stable and no degradation was observed even after 1 h
CC[C@H](C)[C@H](NC(=O)[C@H](CO)NC(=O)[C@H](CCC(=O)O)NC(=O)[C@@H]1CCCN1C(C)=O)C(=O)N[C@]1(CC(C)C)CCCC=CCCC[C@@](C)(C(=O)N[C@H](C(=O)N[C@@H](CCC(N)=O)C(=O)N[C@@H](CCCNC(=N)N)C(=O)N[C@H](C(=O)N[C@@H](CCSC)C(=O)N[C@@H](CCCCN)C(N)=O)C(C)C)C(C)C)NC(=O)[C@H](CCC(=O)O)NC(=O)[C@H](CC(=O)O)NC1=O [WNT-6a] (Ac-PESI[X2]DE[S5]VQRVMK-NH2; staple 5-8) | 70.9 | Wnt3a-induced Topflash reporter expression, comparison in words [1]: enhanced the Wnt3a-induced reporter expression more effectively than Axin (469–482); fold enhancement of Wnt3a-induced reporter expression ([1]; HEK293T cells, Topflash-luciferase, compared with Axin (469–482)): three-fold enhancement; α-Helicity [2]: 70.87%
CC[C@H](C)[C@H](NC(=O)[C@H](CO)NC(=O)[C@H](CCC(=O)O)NC(=O)[C@@H]1CCCN1C(C)=O)C(=O)N[C@@H](CC(C)C)C(=O)N[C@@H](CC(=O)O)C(=O)N[C@@H](CCC(=O)O)C(=O)N[C@@H](Cc1c[nH]cn1)C(=O)N[C@H](C(=O)N[C@@H](CCC(N)=O)C(=O)N[C@@]1(C)CCCC=CCCC[C@](CCCCN)(C(N)=O)NC(=O)[C@H](CCSC)NC(=O)[C@H](C(C)C)NC1=O)C(C)C [WNT-8a] (Ac-PESILDEHVQ[S5]VM[X6]-NH2; staple 11-14) |  | Wnt3a-induced Topflash reporter expression, comparison in words [1]: enhanced the Wnt3a-induced reporter expression more effectively than Axin (469–482)
Ac-PESILDEHVQRVMK-NH2 [Axin (469–482)] | 19.6 | half-life at 0.1 mM (in vitro): 9 min
